Laboratory results from US20160289698A1 (TRUSTEES OF DARTMOUTH COLLEGE, published 2016).
Blank lines part the entries; values can stand above or below the binder they belong to.

Key:
[1] = target: T1, KISS ME DEADLY 1 (KMD1) (Arabidopsis, UniProt Q9M8L2 1-354); test: BiFC with ARR fragments; the weaker of the two interactions
T1 construct: Full-length protein; also called At1g80440
T1 sequence (looked up): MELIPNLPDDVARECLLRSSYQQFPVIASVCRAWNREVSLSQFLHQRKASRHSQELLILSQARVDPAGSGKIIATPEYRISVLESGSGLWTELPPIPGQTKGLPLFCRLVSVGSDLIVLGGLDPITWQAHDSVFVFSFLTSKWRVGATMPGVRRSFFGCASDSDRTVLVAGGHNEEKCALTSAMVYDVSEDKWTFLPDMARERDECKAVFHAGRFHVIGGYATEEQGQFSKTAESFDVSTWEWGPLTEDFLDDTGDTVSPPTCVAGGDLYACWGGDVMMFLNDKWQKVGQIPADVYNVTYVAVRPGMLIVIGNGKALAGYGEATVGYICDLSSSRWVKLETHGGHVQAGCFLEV

[2] = target: T1, KISS ME DEADLY 1 (KMD1); test: BiFC (YFP^N/YFP^C fusions) in Arabidopsis protoplasts
Procedure: (§1) Arabidopsis protoplasts were transfected as described (Kovtun, et al. (2000) Proc. Natl. Acad. Sci. USA 97(6):2940-2945) and incubated overnight at 22° C. under dim light (5 […]) and examined with an Axioplan2 fluorescent microscope (Carl Zeiss).
(§2) KMD proteins contain a conserved amino-terminal F-box motif. To determine if KMDs function as canonical F-box proteins, their interactions with known components of the Arabidopsis SCF complex were examined.

[3] = target: T2, KISS ME DEADLY 2 (KMD2) (Arabidopsis, UniProt Q9LMR5 1-359); test: as above
T2 construct: Full-length protein; LexA fusion in yeast two-hybrid, YFP^N or YFP^C fusion in BiFC; also called At1g15670
T2 sequence (looked up): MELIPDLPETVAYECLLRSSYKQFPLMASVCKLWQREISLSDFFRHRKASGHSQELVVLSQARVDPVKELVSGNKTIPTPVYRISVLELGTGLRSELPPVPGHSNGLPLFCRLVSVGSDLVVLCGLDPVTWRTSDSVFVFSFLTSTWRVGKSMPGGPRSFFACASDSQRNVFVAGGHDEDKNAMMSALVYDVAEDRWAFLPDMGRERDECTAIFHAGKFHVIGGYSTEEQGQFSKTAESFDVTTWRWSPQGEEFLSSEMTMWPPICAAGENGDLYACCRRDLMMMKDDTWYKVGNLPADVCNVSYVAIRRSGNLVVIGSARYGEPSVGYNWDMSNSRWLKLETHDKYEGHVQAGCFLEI
Procedure: as §1, §2

[4] = target: T3, KISS ME DEADLY 3 (KMD3) (Arabidopsis, UniProt O80582 1-409); test: as above
T3 construct: Full-length protein; LexA fusion in yeast two-hybrid, YFP^N or YFP^C fusion in BiFC; also called At2g44130
T3 sequence (looked up): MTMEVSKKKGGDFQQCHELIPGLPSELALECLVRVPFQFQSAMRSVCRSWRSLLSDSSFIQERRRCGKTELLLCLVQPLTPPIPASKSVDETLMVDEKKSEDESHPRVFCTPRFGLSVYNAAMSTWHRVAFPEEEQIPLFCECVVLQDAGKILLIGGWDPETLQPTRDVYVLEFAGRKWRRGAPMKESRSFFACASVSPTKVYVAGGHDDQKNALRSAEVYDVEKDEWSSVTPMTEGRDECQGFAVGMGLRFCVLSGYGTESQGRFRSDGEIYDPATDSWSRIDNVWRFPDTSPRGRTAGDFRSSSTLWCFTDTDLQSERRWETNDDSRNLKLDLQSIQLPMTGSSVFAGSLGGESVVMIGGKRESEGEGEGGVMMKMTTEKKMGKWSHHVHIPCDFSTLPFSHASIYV
Procedure: as §1, §2

[5] = target: T4, KISS ME DEADLY 4 (KMD4) (Arabidopsis, UniProt Q9M1Y1 1-418); test: as above
T4 construct: Full-length protein; LexA fusion in yeast two-hybrid, YFP^N or YFP^C fusion in BiFC; also called At3g59940
T4 sequence (looked up): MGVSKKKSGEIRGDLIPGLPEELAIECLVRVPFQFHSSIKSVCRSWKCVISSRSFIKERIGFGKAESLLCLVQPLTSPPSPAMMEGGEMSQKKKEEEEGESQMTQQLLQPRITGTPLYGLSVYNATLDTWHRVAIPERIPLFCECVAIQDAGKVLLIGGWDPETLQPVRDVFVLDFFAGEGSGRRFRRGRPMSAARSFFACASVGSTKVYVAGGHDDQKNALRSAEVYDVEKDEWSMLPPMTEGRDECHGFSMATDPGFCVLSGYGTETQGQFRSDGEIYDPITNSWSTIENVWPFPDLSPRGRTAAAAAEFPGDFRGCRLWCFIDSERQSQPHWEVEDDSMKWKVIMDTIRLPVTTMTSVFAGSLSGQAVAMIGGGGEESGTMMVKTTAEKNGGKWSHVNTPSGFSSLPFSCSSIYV
Procedure: as §1, §2

[6] = target: T3, KISS ME DEADLY 3 (KMD3); test: yeast two-hybrid (LexA-KMD bait, B42-ARR prey, X-gal)
From the text: (§3) The DUPLEX-A™ system (OriGene Technologies) was used for yeast two-hybrid analysis of interactions. KMD cDNAs were cloned into the pGilda bait vector, which produces an in-frame fusion with the LexA DNA-binding domain. Type-B ARR coding sequences were cloned into the pJG4-5 prey vector, which produces a B42 activation domain. The yeast strain EGY48 (MATa, trp1, his3, ura3, leu2::6 LexAop-LEU2) that contains the lacZ reporter plasmid pSH18-34 was transformed with the appropriate “bait” and “prey” plasmids. Interactions were tested on 5-bromo-4-chloro-3-indolyl-p-D-galactopyranoside (X-gal) medium (Ryu, et al. (2005) Cell 120(3): 395-406).
(§4) The KMD proteins also interacted with ARR20 (type-B ARR subfamily-3), but not with ARR19 (subfamily-2) and ARR21 (subfamily-3). […] All four KMD proteins interacted with both ARR1 and ARR12 in a BiFC assay. Strong fluorescence was detected in the nuclei of cells, consistent with the subcellular localization of the type-B ARRs (Hwang & Sheen J (2001) Nature 413(6854):383-389; Mason, et al. (2004) Plant Physiol. 135(2):927-937).

[7] = target: T4, KISS ME DEADLY 4 (KMD4); test: as above
From the text: as §3, §4

[8] = target: T1, KISS ME DEADLY 1 (KMD1); test: yeast two-hybrid (LexA-KMD bait, X-gal)
From the text: as §3, §4

[9] = target: T2, KISS ME DEADLY 2 (KMD2); test: yeast two-hybrid (LexA-KMD bait, X-gal)
From the text: as §3, §4

[10] = target: T3, KISS ME DEADLY 3 (KMD3); test: yeast two-hybrid (LexA-KMD bait, X-gal)
From the text: as §3, §4

[11] = target: T4, KISS ME DEADLY 4 (KMD4); test: yeast two-hybrid (LexA-KMD bait, X-gal)
From the text: as §3, §4

[12] = target: T5, ARR12 (Arabidopsis, UniProt P62598 1-596); test: yeast two-hybrid
T5 construct: YFP^N or YFP^C fusion of the full-length cDNA in BiFC; also called AtARR12; type-B response regulator AtARR12
T5 sequence (looked up): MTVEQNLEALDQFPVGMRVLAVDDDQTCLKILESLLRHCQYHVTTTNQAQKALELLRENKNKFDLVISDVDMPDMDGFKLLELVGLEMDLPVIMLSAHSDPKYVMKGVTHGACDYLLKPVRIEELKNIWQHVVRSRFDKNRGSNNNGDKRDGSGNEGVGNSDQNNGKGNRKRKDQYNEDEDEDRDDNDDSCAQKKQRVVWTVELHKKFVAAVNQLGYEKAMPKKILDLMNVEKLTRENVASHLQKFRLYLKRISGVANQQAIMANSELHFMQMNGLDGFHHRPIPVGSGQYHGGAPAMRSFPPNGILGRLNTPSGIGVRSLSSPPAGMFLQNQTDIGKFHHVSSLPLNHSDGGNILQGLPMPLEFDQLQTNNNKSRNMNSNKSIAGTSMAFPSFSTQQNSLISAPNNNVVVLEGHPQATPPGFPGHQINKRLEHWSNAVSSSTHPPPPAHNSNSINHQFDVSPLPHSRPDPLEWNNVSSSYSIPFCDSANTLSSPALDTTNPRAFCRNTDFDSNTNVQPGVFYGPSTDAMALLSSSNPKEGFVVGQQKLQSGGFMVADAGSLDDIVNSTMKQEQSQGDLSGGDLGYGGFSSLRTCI

[13] = target: T5, ARR12; test: yeast two-hybrid, positive control

B2: ASK1, an Arabidopsis Skp1 protein of the SCF complex (other, UniProt Q39255 1-160, looked up)
chain: MSAKKIVLKSSDGESFEVEEAVALESQTIAHMVEDDCVDNGVPLPNVTSKILAKVIEYCKRHVEAAASKAEAVEGAATSDDDLKAWDADFMKIDQATLFELILAANYLNIKNLLDLTCQTVADMIKGKTPEEIRTTFNIKNDFTPEEEEEVRRENQWAFE
notes: Full-length cDNA fused to YFP^N or YFP^C for BiFC
binding result [2]: binds
binding result [3]: binds
binding result [4]: binds
binding result [5]: binds

B5: OsKMD2 (other)
chain: MGYNELIPGLPEEVARECLIRVGFDQLPAVRRISRQWKAEVESPAYNRLRKAEGLARPALALVQARRELAEAGPAADKQSSAGGVPGNSYRMVLLDPAEGRWTPLPEVGGASGSLPLFCQVAAVDGGVEGRKRLVVVGGWDPETWAPTDSVLVYDFLTGAWRRGAAMPGPRRSFFACAAVGGKVFVAGGHDEEKNALRSALAYDPDADAWAALPDMAEERDEPRGLCVDGKFLVVGGYPTPAQGRFVGSAEWFDPATSTWSAVQEGFVDDGACPRTCSAAPEAGDRMYMLRDGHLVARHGAISSAPAAWRPVAPVPEDARTAAAVSVIPDGRVVVIGSDCHGGDQTVYTLREEAGKPASWARAPAPPEFSGHVQAACLLEI
notes: Tested in yeast two-hybrid; The fusion partner (LexA bait as for the Arabidopsis KMDs) is not restated for OsKMD2; also called rice KMD2; Os06g39370
binding result [12]: binds

B6: phosphotransfer protein AtAHP2 (other, Arabidopsis, UniProt Q9ZNV8 1-156, looked up)
chain: MDALIAQLQRQFRDYTISLYQQGFLDDQFTELKKLQDDGSPDFVSEVLSLFFEDCVKLISNMARALDTTGTVDFSQVGASVHQLKGSSSSVGAKRVKTLCVSFKECCEAKNYEGCVRCLQQVDIEYKALKTKLQDMFNLEKQIIQAGGIVPQVDIN
notes: Positive control in the yeast two-hybrid test with AtARR12; construct not described
binding result [13]: binds

B7: ARR7 (type-A ARR) (other, Arabidopsis, UniProt Q9ZWS7 1-206, looked up)
chain: MAVGEVMRMEIPAGGDLTVTTPELHVLAVDDSIVDRKVIERLLRISSCKVTTVESGTRALQYLGLDGGKGASNLKDLKVNLIVTDYSMPGLSGYDLLKKIKESSAFREVPVVIMSSENILPRIQECLKEGAEEFLLKPVKLADVKRIKQLIMRNEAEECKILSHSNKRKLQEDSDTSSSSHDDTSIKDSSCSKRMKSESENLFSLL
notes: Prey in yeast two-hybrid
binding result [8]: no binding
binding result [9]: no binding
binding result [10]: no binding
binding result [11]: no binding

Other lines, results leading:

binding result [1]: binds
B1: ARR12 (1-134) (other, Arabidopsis, UniProt P62598 1-134, looked up)
chain: MTVEQNLEALDQFPVGMRVLAVDDDQTCLKILESLLRHCQYHVTTTNQAQKALELLRENKNKFDLVISDVDMPDMDGFKLLELVGLEMDLPVIMLSAHSDPKYVMKGVTHGACDYLLKPVRIEELKNIWQHVVR
notes: range 1-134; Fused to a YFP fragment for BiFC; also called receiver domain of ARR12

binding result [6]: no binding
binding result [7]: no binding
B3: ARR19 (subfamily-2) (other, Arabidopsis, UniProt Q9M9B9 1-407, looked up)
chain: MLVGKISGYEDNTRSLERETSEITSLLSQFPGNTNVLVVDTNFTTLLNMKQIMKQYAYQVSIETDAEKALAFLTSCKHEINIVIWDFHMPGIDGLQALKSITSKLDLPVVIMSDDNQTESVMKATFYGACDYVVKPVKEEVMANIWQHIVRKRLIFKPDVAPPKPRMTWSEVFQPVQSHLVPTDGLDRDHFDSITINGGNGIQNMEKKQGKKPRKPRMTWTEELHQKFLEAIEIIGGIEKANPKVLVECLQEMRIEGITRSNVASHLQKHRINLEENQIPQQTQGNGWATAYGTLAPSLQGSDNVNTTIPSYLMNGPATLNQIQQNQYQNGFLTMNNNQIITNPPPPLPYLDHHHQQQHQSSPQFNYLMNNEELLQASGLSATDLELTYPSLPYDPQEYLINGYNYN

binding result [8]: no binding
binding result [9]: no binding
binding result [10]: no binding
binding result [11]: no binding
B4: ARR4 (type-A ARR) (other, Arabidopsis, UniProt O82798 1-259, looked up)
chain: MARDGGVSCLRRSEMMSVGGIGGIESAPLDLDEVHVLAVDDSLVDRIVIERLLRITSCKVTAVDSGWRALEFLGLDNEKASAEFDRLKVDLIITDYCMPGMTGYELLKKIKESSNFREVPVVIMSSENVLTRIDRCLEEGAQDFLLKPVKLADVKRLRSHLTKDVKLSNGNKRKLPEDSSSVNSSLPPPSPPLTISPESSPPLTVSTESSDSSPPLSPVEIFSTSPLSSPIDDEDDDVLTSSSEESPIRRQKMRSPGLD
notes: Prey in yeast two-hybrid
